Assay results from patent US20230272056A1 (Merck Sharp & Dohme, published 2023).
Positions count from the first letter of the chain named. Names may count otherwise.

B1: VH S31K (24BIT) (Fab, V domains shown)
VH: EVQLVQSGAEVKKPGASVKVSCKASGYTFTKYWMHWVRQAPGQGLEWMGRIDPQSGGIKYAQKFQGRATLTVDTSTSTAYMELSRLRSDDTAVYYCARWDYGGYFDVWGQGTLVTVSS
VL: DIQMTQSPSSLSASVGDRVTITCRASQDITNYLNWYQQKPGKAVKLLIYYTSRLHSGVPSRFSGSGSGTDYTLTISSLQPEDFATYFCQQGDTLPWTFGQGTKLEIKR
notes: Light chain: parental 20E6 LC, implied
B2: VH S31R (25BIT) (Fab, V domains shown)
VH: B1 VH with K31R
VL: B1 VL
notes: as for B1
B3: VL R53E (31BIT) (Fab, V domains shown)
VH: B1 VH with K31S
VL: B1 VL with R53E
notes: Heavy chain: parental 20E6 Fab HC, implied
B4: VL L94D (32BIT) (Fab, V domains shown)
VH: B1 VH with K31S
VL: B1 VL with L94D
notes: as for B3
B5: VH G102S (29BIT) (Fab, V domains shown)
VH: B1 VH with K31S, G102S
VL: B1 VL
notes: as for B1
B6: VH S55E (26BIT) (Fab, V domains shown)
VH: B1 VH with K31S, S55E
VL: B1 VL
notes: as for B1
B7: VH H35R (62BIT) (Fab, V domains shown)
VH: B1 VH with K31S, H35R
VL: B1 VL
notes: as for B1
B8: VH G57E (63BIT) (Fab, V domains shown)
VH: B1 VH with K31S, G57E
VL: B1 VL
notes: as for B1
B9: VH K59W (61BIT) (Fab, V domains shown)
VH: B1 VH with K31S, K59W
VL: B1 VL
notes: as for B1
B10: VL R53I (34BIT) (Fab, V domains shown)
VH: B1 VH with K31S
VL: B1 VL with R53I
notes: Heavy chain: parental 20E6 Fab HC, implied; also called VL R531 (34BIT)
B11: VH K59Q (28BIT) (Fab, V domains shown)
VH: B1 VH with K31S, K59Q
VL: B1 VL
notes: as for B1
B12: VL L94Q (33BIT) (Fab, V domains shown)
VH: B1 VH with K31S
VL: B1 VL with L94Q
notes: as for B3
B13: VL T30E (36BIT) (Fab, V domains shown)
VH: B1 VH with K31S
VL: B1 VL with T30E
notes: as for B3
B14: VH G57D (27BIT) (Fab, V domains shown)
VH: B1 VH with K31S, G57D
VL: B1 VL
notes: as for B1
B15: VH H35K (30BIT) (Fab, V domains shown)
VH: B1 VH with K31S, H35K
VL: B1 VL
notes: as for B1
B16: VL T30D (37BIT) (Fab, V domains shown)
VH: B1 VH with K31S
VL: B1 VL with T30D
notes: as for B3
B17: VL R53D (35BIT) (Fab, V domains shown)
VH: B1 VH with K31S
VL: B1 VL with R53D
notes: as for B3
B18: VL R24Y (38BIT) (Fab, V domains shown)
VH: B1 VH with K31S
VL: B1 VL with R24Y
B19: VL S56Y (53BIT) (Fab, V domains shown)
VH: B1 VH with K31S
VL: B1 VL with S56Y
B20: VL R53Y (50BIT) (Fab, V domains shown)
VH: B1 VH with K31S
VL: B1 VL with R53Y
B21: VL T51Y (48BIT) (Fab, V domains shown)
VH: B1 VH with K31S
VL: B1 VL with T51Y
B22: VL T30Y (44BIT) (Fab, V domains shown)
VH: B1 VH with K31S
VL: B1 VL with T30Y
B23: VL S26Y (40BIT) (Fab, V domains shown)
VH: B1 VH with K31S
VL: B1 VL with S26Y
B24: VL S52Y (49BIT) (Fab, V domains shown)
VH: B1 VH with K31S
VL: B1 VL with S52Y
B25: VL T93Y (58BIT) (Fab, V domains shown)
VH: B1 VH with K31S
VL: B1 VL with T93Y
B26: parental 20E6 humanized antibody (antibody, IgG1, V domains shown)
VH: B1 VH with K31S
VL: DIQMTQSPSSLSASVGDRVTITCRASQDITNYLNWYQQKPGKAVKLLIYYTSRLHSGVPSRFSGSGSGTDYTLTISSLQPEDFATYFCQQGDTLPWTFGQGTKLEIK
B27: 14BLM (antibody, human IgG1, kappa, L234A L235A, V domains shown)
VH: B1 VH with K31S, W33D, M34T
VL: B1 VL with T30Y, R53Y, H55E, S56T
B28: 10BLM (antibody, human IgG1, kappa, L234A L235A, V domains shown)
VH: B1 VH with K31S, W33D, I58T
VL: B1 VL with T30Y, R53V, H55E, S56T
B29: 13BLM (antibody, human IgG1, kappa, L234A L235A, V domains shown)
VH: B1 VH with K31S, W33D, S55T, G57D, Y104Q
VL: B1 VL with T30Y, R53G, H55E, S56T
B30: 08BLM (antibody, human IgG1, kappa, L234A L235A, V domains shown)
VH: B1 VH with K31S, W33D, I58T, Y104Q
VL: B1 VL with T30Y, R53G, H55E, S56T
B31: 17BLM (antibody, human IgG1, kappa, L234A L235A, V domains shown)
VH: B1 VH with K31S, W33D
VL: B1 VL with T30Y, H55E, S56T, T93E
B32: 09BLM (antibody, human IgG1, kappa, L234A L235A, V domains shown)
VH: B1 VH with K31S, W33D, Q54I
VL: B1 VL with T30F, R53H, H55E, S56T

target: T1, human LAP-TGFB1 Fc fusion (human); assay: BLI off-rate screen
T1 construct: also called human LAP-TGFβ1-Fc; human LAP-TGFβ-Fc isoform 1
T1 sequence (chain, as listed by the source limits assumed): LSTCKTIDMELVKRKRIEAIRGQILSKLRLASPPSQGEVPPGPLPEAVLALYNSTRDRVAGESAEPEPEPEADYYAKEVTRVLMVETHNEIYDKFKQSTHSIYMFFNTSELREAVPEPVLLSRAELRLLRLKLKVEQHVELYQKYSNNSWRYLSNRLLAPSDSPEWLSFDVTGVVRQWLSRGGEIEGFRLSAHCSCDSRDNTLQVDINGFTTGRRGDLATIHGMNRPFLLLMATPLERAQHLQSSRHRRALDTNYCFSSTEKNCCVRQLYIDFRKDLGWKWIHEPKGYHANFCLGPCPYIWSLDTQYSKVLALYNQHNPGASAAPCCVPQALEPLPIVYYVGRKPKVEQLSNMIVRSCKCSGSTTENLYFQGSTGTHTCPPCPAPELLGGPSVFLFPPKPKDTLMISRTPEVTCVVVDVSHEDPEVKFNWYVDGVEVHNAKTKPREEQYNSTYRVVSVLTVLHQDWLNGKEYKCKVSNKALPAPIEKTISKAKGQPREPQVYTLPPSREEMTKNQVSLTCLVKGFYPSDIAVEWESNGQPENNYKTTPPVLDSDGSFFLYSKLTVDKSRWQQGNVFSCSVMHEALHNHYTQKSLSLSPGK
Experimental: (§1) The Fab mutants including a positive control, 20E6 Fab, and a negative control Fab (Molecular Innovations, catalog HU-FAB-4510) were diluted to 200 nM in assay buffer and loaded to FAB2G sensors for 180 seconds followed by a one-hour incubation at room temperature in assay buffer to equilibrate the tips. The Fab loaded sensors were assessed for binding with 100 nM human LAP-TGFβ for 180 seconds followed by a 180 second dissociation phase in assay buffer on a ForteBio HTX (software version 9.0.0.66). Non-specific binding to the negative control Fab was subtracted and the binding sensorgrams were aligned to the start of the association phase on the X and Y axis. The Fab binding was fit with the 1:1 binding model, dissociation phase only, with local fitting using ForteBio Data Analysis 9.0 software.

Binding response | Fold change | koff | binding result | Binder
0.625 nm | 1.1 fold | 0.037 s⁻¹ |  | B1
0.069 nm | 1 fold | 0.0437 s⁻¹ |  | B2
0.664 nm | 1.5 fold | 0.0286 s⁻¹ |  | B3
0.195 nm | 0.7 fold | 0.0618 s⁻¹ |  | B4
0.087 nm | 0.5 fold | 0.0845 s⁻¹ |  | B5
0.489 nm | 0.8 fold | 0.0519 s⁻¹ |  | B6
0.021 nm |  |  | no binding (tested: 100 nM antigen) | B7
0.69 nm | 1.1 fold | 0.0393 s⁻¹ |  | B8
0.035 nm |  |  | no binding (tested: 100 nM antigen) | B9
0.757 nm | 1.7 fold | 0.0246 s⁻¹ |  | B10
0.165 nm | 0.7 fold | 0.0596 s⁻¹ |  | B11
0.341 nm | 0.7 fold | 0.0583 s⁻¹ |  | B12
0.439 nm | 1 fold | 0.0405 s⁻¹ |  | B13
0.582 nm | 1.3 fold | 0.0337 s⁻¹ |  | B14
0.115 nm | 0.8 fold | 0.0548 s⁻¹ |  | B15
0.182 nm | 1.1 fold | 0.0402 s⁻¹ |  | B16
0.398 nm | 1.2 fold | 0.0341 s⁻¹ |  | B17

target: T1, human LAP-TGFB1 Fc fusion; assay: BLI off-rate screen; remark: another data set of the same source
Experimental: as §1
Twenty-three variants containing a single tyrosine substitution in the light chain CDRs (at one of amino acid positions 24-31, 33, 34, 51-56, and 89-95 according to Kabat numbering scheme) and 21 similar heavy chain CDR variants (at amino acids positions 28-31, 33-35, 50-58 including 52a, 95, 96, 98, and 99 according to Kabat numbering scheme) were generated according to FIG. 1 and listed in Table 6 and their interactions with human LAP-TGFb1 were analyzed by ForteBio interferometry. […] In those sequences the VL is correct, even though these sequences are from the heavy chain. Thus, the VL_X ##Y refers to the position of the tyrosine mutation within the antibody, regardless of whether the sequence is a heavy or light chain.

Binding response | Fold change | koff | Binder
0.446 nm | 1.6 fold | 0.027 s⁻¹ | B18
0.344 nm | 1.3 fold | 0.0324 s⁻¹ | B19
0.365 nm | 1.6 fold | 0.027 s⁻¹ | B20
0.204 nm | 0.8 fold | 0.0508 s⁻¹ | B21
0.472 nm | 2.6 fold | 0.0162 s⁻¹ | B22
0.371 nm | 1.5 fold | 0.0283 s⁻¹ | B23
0.431 nm | 1 fold | 0.0409 s⁻¹ | B24
0.586 nm | 1.5 fold | 0.0273 s⁻¹ | B25

target: human LAP-TGFβ1 expressed on P3U1 cells (human, UniProt P01137 30-390); assay: cell-based or functional assay
Sequence (P01137 30-390): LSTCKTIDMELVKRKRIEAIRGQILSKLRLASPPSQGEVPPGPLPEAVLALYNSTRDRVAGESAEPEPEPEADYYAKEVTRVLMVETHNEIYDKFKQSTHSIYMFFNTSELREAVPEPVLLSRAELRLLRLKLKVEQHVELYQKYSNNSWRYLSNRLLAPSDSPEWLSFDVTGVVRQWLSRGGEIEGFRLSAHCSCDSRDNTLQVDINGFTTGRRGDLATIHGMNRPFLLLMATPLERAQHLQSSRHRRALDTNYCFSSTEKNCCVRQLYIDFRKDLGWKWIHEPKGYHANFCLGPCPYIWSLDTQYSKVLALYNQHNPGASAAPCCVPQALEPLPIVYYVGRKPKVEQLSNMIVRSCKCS

Average EC50 | ELISA assay 2 EC50 | ELISA assay #1 EC50 | Binder
5.64 µg/mL | 8.9 µg/mL | 2.38 µg/mL | B26
0.158 µg/mL | 0.146 µg/mL | 0.169 µg/mL | B27
0.083 µg/mL | 0.134 µg/mL | 0.0332 µg/mL | B28
0.092 µg/mL | 0.105 µg/mL | 0.0785 µg/mL | B29
0.076 µg/mL | 0.098 µg/mL | 0.0539 µg/mL | B30
0.063 µg/mL | 0.089 µg/mL | 0.0357 µg/mL | B31
0.08 µg/mL | 0.13 µg/mL | 0.0295 µg/mL | B32
